# Data from paper PMC5143326.
# What was measured:
# [1] = biological target: low density lipoprotein receptor-related protein 1 (LRP1), purified from placenta; assay: SPR; Biacore T100; LRP1 immobilised on CM5 chip at 3.4 fmol/mm2; CCN-2 or its fragments flowed over; 10 mM Hepes pH 7.4, 150 mM NaCl, 5 mM CaCl2, 0.005 % surfactant P20; 25 °C; affinity constants by steady-state analysis
# LRP1 (Homo sapiens) = LRP1 (Homo sapiens) (UniProt Q07954); details: cited from earlier work
# Sequence of UniProt Q07954 (Q07954 20-4544): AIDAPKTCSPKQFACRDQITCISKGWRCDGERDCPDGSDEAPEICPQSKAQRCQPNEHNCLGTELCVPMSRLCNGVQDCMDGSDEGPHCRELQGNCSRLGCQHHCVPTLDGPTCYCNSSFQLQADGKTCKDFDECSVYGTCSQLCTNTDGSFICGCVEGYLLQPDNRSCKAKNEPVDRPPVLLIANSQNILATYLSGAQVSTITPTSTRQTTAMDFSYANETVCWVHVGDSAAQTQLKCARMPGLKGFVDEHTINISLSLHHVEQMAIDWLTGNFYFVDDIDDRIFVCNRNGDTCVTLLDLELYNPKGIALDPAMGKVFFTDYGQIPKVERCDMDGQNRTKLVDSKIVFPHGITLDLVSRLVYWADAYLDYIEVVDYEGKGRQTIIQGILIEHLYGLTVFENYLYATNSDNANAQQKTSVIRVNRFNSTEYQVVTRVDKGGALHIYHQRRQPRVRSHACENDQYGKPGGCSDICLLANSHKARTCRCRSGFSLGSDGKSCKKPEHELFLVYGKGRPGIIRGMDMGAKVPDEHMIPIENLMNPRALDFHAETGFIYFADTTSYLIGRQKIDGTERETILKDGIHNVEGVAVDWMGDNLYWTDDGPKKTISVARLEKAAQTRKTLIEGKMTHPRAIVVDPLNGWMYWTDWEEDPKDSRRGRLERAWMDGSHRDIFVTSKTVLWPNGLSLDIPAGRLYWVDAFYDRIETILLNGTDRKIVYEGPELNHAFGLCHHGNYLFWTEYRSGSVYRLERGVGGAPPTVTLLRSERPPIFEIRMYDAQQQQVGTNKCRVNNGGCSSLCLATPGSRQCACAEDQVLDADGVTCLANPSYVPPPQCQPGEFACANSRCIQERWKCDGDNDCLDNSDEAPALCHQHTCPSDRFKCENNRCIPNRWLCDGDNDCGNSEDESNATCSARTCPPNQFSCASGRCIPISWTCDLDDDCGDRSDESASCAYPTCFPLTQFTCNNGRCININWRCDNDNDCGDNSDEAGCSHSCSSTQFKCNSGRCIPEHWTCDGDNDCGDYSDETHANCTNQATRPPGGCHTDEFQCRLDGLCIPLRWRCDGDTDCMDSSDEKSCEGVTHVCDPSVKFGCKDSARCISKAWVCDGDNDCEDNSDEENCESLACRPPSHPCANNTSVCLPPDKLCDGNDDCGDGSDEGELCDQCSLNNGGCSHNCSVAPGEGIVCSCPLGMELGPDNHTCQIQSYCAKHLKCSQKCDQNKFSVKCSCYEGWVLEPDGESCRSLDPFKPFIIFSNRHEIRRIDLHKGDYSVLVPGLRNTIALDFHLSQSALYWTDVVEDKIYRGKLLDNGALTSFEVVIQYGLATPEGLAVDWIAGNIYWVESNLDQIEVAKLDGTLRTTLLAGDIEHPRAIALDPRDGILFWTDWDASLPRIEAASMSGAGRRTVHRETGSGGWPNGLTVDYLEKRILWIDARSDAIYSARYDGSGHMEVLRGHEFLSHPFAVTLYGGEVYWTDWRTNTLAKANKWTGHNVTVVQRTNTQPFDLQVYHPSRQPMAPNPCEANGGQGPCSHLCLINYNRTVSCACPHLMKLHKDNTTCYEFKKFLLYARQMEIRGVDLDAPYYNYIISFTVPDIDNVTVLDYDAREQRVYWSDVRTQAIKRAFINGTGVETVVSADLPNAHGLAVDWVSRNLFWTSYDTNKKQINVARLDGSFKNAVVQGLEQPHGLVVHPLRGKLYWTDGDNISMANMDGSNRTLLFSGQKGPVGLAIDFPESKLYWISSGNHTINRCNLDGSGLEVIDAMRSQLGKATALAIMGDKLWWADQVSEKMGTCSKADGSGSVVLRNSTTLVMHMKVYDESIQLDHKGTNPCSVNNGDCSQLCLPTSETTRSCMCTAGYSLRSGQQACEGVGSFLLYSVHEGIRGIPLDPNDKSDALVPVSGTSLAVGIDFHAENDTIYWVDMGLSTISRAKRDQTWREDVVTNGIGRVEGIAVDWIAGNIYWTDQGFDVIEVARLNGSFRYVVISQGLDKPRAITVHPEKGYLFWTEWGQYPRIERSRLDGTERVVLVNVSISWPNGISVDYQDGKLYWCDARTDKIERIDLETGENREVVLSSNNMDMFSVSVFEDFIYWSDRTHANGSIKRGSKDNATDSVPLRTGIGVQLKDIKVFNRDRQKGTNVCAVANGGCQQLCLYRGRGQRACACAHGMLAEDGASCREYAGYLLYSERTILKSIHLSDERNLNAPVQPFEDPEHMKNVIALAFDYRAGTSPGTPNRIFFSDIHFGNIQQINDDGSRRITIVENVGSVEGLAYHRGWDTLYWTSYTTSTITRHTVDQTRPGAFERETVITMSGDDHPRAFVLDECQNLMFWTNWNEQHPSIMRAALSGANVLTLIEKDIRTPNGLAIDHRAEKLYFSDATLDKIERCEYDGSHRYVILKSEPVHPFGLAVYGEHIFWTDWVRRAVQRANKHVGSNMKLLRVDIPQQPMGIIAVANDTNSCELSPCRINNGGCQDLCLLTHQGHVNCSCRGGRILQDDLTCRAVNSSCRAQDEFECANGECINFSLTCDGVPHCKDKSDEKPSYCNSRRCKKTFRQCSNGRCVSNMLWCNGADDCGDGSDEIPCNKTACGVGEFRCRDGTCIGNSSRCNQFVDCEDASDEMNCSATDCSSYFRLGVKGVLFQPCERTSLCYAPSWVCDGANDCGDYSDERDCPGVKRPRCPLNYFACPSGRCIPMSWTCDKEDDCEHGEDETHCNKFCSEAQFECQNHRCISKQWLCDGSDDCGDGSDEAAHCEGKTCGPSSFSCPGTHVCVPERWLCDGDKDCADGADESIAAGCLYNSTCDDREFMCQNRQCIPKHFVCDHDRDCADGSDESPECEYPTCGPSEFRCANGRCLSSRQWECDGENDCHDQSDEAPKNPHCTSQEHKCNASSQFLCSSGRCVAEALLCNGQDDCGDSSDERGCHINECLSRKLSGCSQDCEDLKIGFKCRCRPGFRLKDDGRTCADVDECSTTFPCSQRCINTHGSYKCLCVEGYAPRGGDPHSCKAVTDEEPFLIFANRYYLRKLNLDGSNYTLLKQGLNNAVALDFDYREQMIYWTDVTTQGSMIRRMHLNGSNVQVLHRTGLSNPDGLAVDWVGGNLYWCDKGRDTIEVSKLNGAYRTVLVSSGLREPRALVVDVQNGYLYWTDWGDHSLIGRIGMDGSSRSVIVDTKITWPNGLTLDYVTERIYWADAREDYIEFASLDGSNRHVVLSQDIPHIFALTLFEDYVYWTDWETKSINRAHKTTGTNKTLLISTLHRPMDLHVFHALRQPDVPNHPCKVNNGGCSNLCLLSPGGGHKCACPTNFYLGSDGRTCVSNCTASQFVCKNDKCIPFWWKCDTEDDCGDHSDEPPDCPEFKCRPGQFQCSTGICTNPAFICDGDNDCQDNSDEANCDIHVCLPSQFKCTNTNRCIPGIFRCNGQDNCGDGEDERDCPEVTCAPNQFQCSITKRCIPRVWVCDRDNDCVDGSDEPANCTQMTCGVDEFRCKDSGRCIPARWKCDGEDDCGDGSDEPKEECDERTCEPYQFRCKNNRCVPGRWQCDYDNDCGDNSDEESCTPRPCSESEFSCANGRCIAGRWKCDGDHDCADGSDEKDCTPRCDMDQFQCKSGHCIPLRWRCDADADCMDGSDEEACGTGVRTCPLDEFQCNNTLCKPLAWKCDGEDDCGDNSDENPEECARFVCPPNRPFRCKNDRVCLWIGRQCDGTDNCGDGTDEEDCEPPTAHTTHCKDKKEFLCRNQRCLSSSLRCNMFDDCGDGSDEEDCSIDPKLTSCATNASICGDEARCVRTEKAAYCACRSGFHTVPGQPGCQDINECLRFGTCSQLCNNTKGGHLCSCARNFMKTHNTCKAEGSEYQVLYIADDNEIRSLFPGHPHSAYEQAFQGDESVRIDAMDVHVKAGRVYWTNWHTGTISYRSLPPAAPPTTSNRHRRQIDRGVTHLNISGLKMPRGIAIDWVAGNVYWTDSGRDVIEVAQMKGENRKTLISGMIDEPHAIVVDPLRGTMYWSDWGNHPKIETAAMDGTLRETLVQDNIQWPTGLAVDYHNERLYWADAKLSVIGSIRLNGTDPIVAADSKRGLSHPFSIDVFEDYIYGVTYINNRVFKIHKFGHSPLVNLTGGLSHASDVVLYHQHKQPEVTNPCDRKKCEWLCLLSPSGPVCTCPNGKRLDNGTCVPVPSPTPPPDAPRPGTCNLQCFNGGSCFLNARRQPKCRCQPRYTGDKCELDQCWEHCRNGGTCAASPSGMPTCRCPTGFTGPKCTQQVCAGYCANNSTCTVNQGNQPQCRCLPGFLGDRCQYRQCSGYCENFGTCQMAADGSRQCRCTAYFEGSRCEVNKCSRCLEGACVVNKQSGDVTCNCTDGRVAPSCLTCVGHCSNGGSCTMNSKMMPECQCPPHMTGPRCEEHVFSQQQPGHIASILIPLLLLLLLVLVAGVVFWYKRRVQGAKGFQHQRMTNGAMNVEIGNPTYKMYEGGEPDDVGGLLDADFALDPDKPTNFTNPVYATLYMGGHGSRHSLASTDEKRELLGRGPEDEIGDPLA
Substance,Kd [1] [nM],Kd (LRP1 (Homo sapiens)) [nM]
recombinant human full length CCN-2 (connective tissue growth factor) (from UniProt P29279 27-349) (natural protein),116,
recombinant human CCN-2 C-terminal fragment (domain 3 and 4) (domain or fragment),112,
RAP (from UniProt P30533),,5.4
